From IntAct's records for PubMed 9845372

B1: Double-strand break repair protein MRE11 (Saccharomyces cerevisiae), P32829 (parent)
chain: MDYPDPDTIRILITTDNHVGYNENDPITGDDSWKTFHEVMMLAKNNNVDMVVQSGDLFHVNKPSKKSLYQVLKTLRLCCMGDKPCELELLSDPSQVFHYDEFTNVNYEDPNFNISIPVFGISGNHDDASGDSLLCPMDILHATGLINHFGKVIESDKIKVVPLLFQKGSTKLALYGLAAVRDERLFRTFKDGGVTFEVPTMREGEWFNLMCVHQNHTGHTNTAFLPEQFLPDFLDMVIWGHEHECIPNLVHNPIKNFDVLQPGSSVATSLCEAEAQPKYVFILDIKYGEAPKMTPIPLETIRTFKMKSISLQDVPHLRPHDKDATSKYLIEQVEEMIRDANEETKQKLADDGEGDMVAELPKPLIRLRVDYSAPSNTQSPIDYQVENPRRFSNRFVGRVANGNNVVQFYKKRSPVTRSKKSGINGTSISDRDVEKLFSESGGELEVQTLVNDLLNKMQLSLLPEVGLNEAVKKFVDKDEKTALKEFISHEISNEVGILSTNEEFLRTDDAEEMKALIKQVKRANSVRPTPPKENDETNFAFNGNGLDSFRSSNREVRTGSPDITQSHVDNESRITHISQAESSKPTSKPKRVRTATKKKIPAFSDSTVISDAENELGDNNDAQDDVDIDENDIIMVSTDEEDASYGLLNGRKTKTKTRPAASTKTASRRGKGRASRTPKTDILGSLLAKKRK
partner: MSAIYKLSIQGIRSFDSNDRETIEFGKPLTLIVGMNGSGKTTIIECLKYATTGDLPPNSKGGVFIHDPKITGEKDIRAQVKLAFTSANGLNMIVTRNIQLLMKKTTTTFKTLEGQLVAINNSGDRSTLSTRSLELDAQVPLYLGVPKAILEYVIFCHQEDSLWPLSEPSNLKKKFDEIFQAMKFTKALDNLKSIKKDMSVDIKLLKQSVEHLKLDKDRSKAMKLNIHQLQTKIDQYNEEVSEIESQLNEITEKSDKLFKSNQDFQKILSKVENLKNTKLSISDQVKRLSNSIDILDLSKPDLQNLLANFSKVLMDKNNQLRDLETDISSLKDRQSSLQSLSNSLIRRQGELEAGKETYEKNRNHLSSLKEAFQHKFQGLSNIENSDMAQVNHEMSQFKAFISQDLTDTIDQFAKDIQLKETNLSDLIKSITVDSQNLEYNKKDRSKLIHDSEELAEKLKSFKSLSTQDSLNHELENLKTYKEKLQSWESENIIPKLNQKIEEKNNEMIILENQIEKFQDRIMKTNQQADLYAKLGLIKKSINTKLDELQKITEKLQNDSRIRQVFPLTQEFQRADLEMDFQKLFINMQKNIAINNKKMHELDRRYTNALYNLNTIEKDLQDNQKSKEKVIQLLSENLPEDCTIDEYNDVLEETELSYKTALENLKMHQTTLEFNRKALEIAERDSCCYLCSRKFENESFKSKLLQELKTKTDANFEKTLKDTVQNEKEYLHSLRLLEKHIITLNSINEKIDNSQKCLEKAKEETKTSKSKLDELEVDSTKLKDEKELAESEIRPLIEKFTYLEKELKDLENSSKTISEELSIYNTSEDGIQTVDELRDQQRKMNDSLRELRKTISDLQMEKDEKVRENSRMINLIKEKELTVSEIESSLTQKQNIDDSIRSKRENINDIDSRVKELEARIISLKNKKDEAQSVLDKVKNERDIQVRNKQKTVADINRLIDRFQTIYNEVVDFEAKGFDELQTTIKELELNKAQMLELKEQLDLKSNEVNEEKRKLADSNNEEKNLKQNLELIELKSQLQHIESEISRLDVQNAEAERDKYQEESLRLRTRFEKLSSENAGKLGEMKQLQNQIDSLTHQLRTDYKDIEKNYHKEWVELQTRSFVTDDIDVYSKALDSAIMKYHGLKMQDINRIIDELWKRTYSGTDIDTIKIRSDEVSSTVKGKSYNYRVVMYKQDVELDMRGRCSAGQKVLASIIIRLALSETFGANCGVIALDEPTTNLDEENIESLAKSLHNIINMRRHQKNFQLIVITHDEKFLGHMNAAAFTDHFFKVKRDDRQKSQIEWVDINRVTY

Variants of: B1
Settings: with rad50_yeast RAD50, P12753

| Variant | effect of a mutation on the interaction |
| --- | --- |
| H213Y;L225I | disrupting interaction |
